Measurements as given in article PMC9352680, “A comprehensive thermodynamic model for RNA binding by the Saccharomyces cerevisiae Pumilio protein PUF4”.

T1: PUF4 RNA-binding domain (Saccharomyces cerevisiae, UniProt P25339 537-888)
T1 sequence: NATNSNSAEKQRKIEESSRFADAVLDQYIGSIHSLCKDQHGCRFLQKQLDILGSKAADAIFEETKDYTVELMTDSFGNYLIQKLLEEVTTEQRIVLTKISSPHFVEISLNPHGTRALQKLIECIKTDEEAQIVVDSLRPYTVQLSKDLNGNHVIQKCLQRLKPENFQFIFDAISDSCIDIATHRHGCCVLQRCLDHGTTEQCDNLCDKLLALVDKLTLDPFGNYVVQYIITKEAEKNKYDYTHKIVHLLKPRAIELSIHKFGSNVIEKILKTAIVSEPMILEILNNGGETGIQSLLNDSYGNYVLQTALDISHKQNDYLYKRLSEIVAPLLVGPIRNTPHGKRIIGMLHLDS


Target: T1, PUF4 RNA-binding domain
Experiment: Mg; RNA-MaP; 20 mM Na-HEPES pH 7.4, 30 mM KOAc, 0.75 mM MgCl2, 0.1% Tween-20, 5% glycerol, 0.1 mg/mL BSA, 2 mM DTT; 25 C; 0.0125-409.6 nM protein
Conditions: tags: N-His6-TEV cleaved; C-SNAP kept, Cy3B-labelled; label: tethered on chip by stalled RNA polymerase

Binder | Kd [nM]
Ie_S2_P4E.1_K4.1_C4.1_H4.1_[+1CTT]_A4.1_F4.1_T4.1 (ssRNA) RNA: UUUGAUUAAUAUGAUAUCGUUCUUUCUUCUUGUAUAUUAUUCUUUCUCGAUAUCAUAUUAAUCUUU | 0.196
Ie_S2_P4E.1_K4.1_C4.1_H4.1_[+1CCTC]_A4.1_F4.1_T4.1 (ssRNA) RNA: UUUGAUUAAUAUGAUAUCGUUCUUUCUUCCUCGUAUAUUAUUCUUUCUCGAUAUCAUAUUAAUCUUU | 5.67
Ie_S2_P4E.1_K4.1_C4.1_H4.1_[+1CCCT]_A4.1_F4.1_T4.1 (ssRNA) RNA: UUUGAUUAAUAUGAUAUCGUUCUUUCUUCCCUGUAUAUUAUUCUUUCUCGAUAUCAUAUUAAUCUUU | 0.188
Ie_S2_P4E.1_K4.1_C4.1_H4.1_[+1TCTCT]_A4.1_F4.1_T4.1 (ssRNA) RNA: UUUGAUUAAUAUGAUAUCGUUCUUUCUUUCUCUGUAUAUUAUUCUUUCUCGAUAUCAUAUUAAUCUUU | 0.249
Ie_S2_P4E.1_K4.1_C4.1_H4.1_[+1CCTCT]_A4.1_F4.1_T4.1 (ssRNA) RNA: UUUGAUUAAUAUGAUAUCGUUCUUUCUUCCUCUGUAUAUUAUUCUUUCUCGAUAUCAUAUUAAUCUUU | 0.166
Ib_S2_P3E.1_K3.1_C3.1_H3.1_A3.1_[A6C]_F3.1_[A8G]_T3.1 (ssRNA) RNA: UUUGAUUAAUAUGAUAUCGUUCUUUCUUGUAUCUGUUCUUUCUCGAUAUCAUAUUAAUCUUU | 14.7
Ie_S2_P4E.1_K4.1_C4.1_H4.1_[+1TTCCT]_A4.1_F4.1_T4.1 (ssRNA) RNA: UUUGAUUAAUAUGAUAUCGUUCUUUCUUUUCCUGUAUAUUAUUCUUUCUCGAUAUCAUAUUAAUCUUU | 0.215
Ie_S2_P4E.1_K4.1_C4.1_H4.1_[+1CCCTT]_A4.1_F4.1_T4.1 (ssRNA) RNA: UUUGAUUAAUAUGAUAUCGUUCUUUCUUCCCUUGUAUAUUAUUCUUUCUCGAUAUCAUAUUAAUCUUU | 0.12
Ie_S2_P4E.1_K4.1_C4.1_H4.1_[+2C]_A4.1_F4.1_T4.1 (ssRNA) RNA: UUUGAUUAAUAUGAUAUCGUUCUUUCUUGCUAUAUUAUUCUUUCUCGAUAUCAUAUUAAUCUUU | 81.5
Ie_S2_P4E.1_K4.1_C4.1_H4.1_[+2CT]_A4.1_F4.1_T4.1 (ssRNA) RNA: UUUGAUUAAUAUGAUAUCGUUCUUUCUUGCUUAUAUUAUUCUUUCUCGAUAUCAUAUUAAUCUUU | 198
Ie_S2_P4E.1_K4.1_C4.1_H4.1_[+2TC]_A4.1_F4.1_T4.1 (ssRNA) RNA: UUUGAUUAAUAUGAUAUCGUUCUUUCUUGUCUAUAUUAUUCUUUCUCGAUAUCAUAUUAAUCUUU | 27.8
Ie_S2_P4E.1_K4.1_C4.1_H4.1_[+3TT]_A4.1_F4.1_T4.1 (ssRNA) RNA: UUUGAUUAAUAUGAUAUCGUUCUUUCUUGUUUAUAUUAUUCUUUCUCGAUAUCAUAUUAAUCUUU | 34.1
Ie_S2_P4E.1_K4.1_C4.1_H4.1_[+2TCC]_A4.1_F4.1_T4.1 (ssRNA) RNA: UUUGAUUAAUAUGAUAUCGUUCUUUCUUGUCCUAUAUUAUUCUUUCUCGAUAUCAUAUUAAUCUUU | 10.9
Ie_S2_P4E.1_K4.1_C4.1_H4.1_[+3CTT]_A4.1_F4.1_T4.1 (ssRNA) RNA: UUUGAUUAAUAUGAUAUCGUUCUUUCUUGUCUUAUAUUAUUCUUUCUCGAUAUCAUAUUAAUCUUU | 14.4
Ie_S2_P4E.1_K4.1_C4.1_H4.1_[+2CTT]_A4.1_F4.1_T4.1 (ssRNA) RNA: UUUGAUUAAUAUGAUAUCGUUCUUUCUUGCUUUAUAUUAUUCUUUCUCGAUAUCAUAUUAAUCUUU | 111
Ie_S2_P4E.1_K4.1_C4.1_H4.1_[+2CTCT]_A4.1_F4.1_T4.1 (ssRNA) RNA: UUUGAUUAAUAUGAUAUCGUUCUUUCUUGCUCUUAUAUUAUUCUUUCUCGAUAUCAUAUUAAUCUUU | 47.4
Ib_S2_P3E.1_K3.1_C3.1_H3.1_A3.1_[A6T]_F3.1_[A8G]_T3.1 (ssRNA) RNA: UUUGAUUAAUAUGAUAUCGUUCUUUCUUGUAUUUGUUCUUUCUCGAUAUCAUAUUAAUCUUU | 37.8
Ie_S2_P4E.1_K4.1_C4.1_H4.1_[+2TCTC]_A4.1_F4.1_T4.1 (ssRNA) RNA: UUUGAUUAAUAUGAUAUCGUUCUUUCUUGUCUCUAUAUUAUUCUUUCUCGAUAUCAUAUUAAUCUUU | 16.8
Ie_S2_P4E.1_K4.1_C4.1_H4.1_[+2TTCC]_A4.1_F4.1_T4.1 (ssRNA) RNA: UUUGAUUAAUAUGAUAUCGUUCUUUCUUGUUCCUAUAUUAUUCUUUCUCGAUAUCAUAUUAAUCUUU | 17.9
Ie_S2_P4E.1_K4.1_C4.1_H4.1_[+2CCCT]_A4.1_F4.1_T4.1 (ssRNA) RNA: UUUGAUUAAUAUGAUAUCGUUCUUUCUUGCCCUUAUAUUAUUCUUUCUCGAUAUCAUAUUAAUCUUU | 127
Ie_S2_P4E.1_K4.1_C4.1_H4.1_[+2CTCTC]_A4.1_F4.1_T4.1 (ssRNA) RNA: UUUGAUUAAUAUGAUAUCGUUCUUUCUUGCUCUCUAUAUUAUUCUUUCUCGAUAUCAUAUUAAUCUUU | 101
Ie_S2_P4E.1_K4.1_C4.1_H4.1_[+2TCTCT]_A4.1_F4.1_T4.1 (ssRNA) RNA: UUUGAUUAAUAUGAUAUCGUUCUUUCUUGUCUCUUAUAUUAUUCUUUCUCGAUAUCAUAUUAAUCUUU | 26.5

Binder | Kd [nM]
Ie_S2_P4E.1_K4.1_C4.1_H4.1_[+2CCTCT]_A4.1_F4.1_T4.1 (ssRNA) RNA: UUUGAUUAAUAUGAUAUCGUUCUUUCUUGCCUCUUAUAUUAUUCUUUCUCGAUAUCAUAUUAAUCUUU | 122
Ie_S2_P4E.1_K4.1_C4.1_H4.1_[+3CTC]_A4.1_F4.1_T4.1 (ssRNA) RNA: UUUGAUUAAUAUGAUAUCGUUCUUUCUUGUCUCAUAUUAUUCUUUCUCGAUAUCAUAUUAAUCUUU | 9.57
Ie_S2_P4E.1_K4.1_C4.1_H4.1_[+3CCTC]_A4.1_F4.1_T4.1 (ssRNA) RNA: UUUGAUUAAUAUGAUAUCGUUCUUUCUUGUCCUCAUAUUAUUCUUUCUCGAUAUCAUAUUAAUCUUU | 106
Ie_S2_P4E.1_K4.1_C4.1_H4.1_[+3CCCT]_A4.1_F4.1_T4.1 (ssRNA) RNA: UUUGAUUAAUAUGAUAUCGUUCUUUCUUGUCCCUAUAUUAUUCUUUCUCGAUAUCAUAUUAAUCUUU | 41.4
Ie_S2_P4E.1_K4.1_C4.1_H4.1_[+3CTCTC]_A4.1_F4.1_T4.1 (ssRNA) RNA: UUUGAUUAAUAUGAUAUCGUUCUUUCUUGUCUCUCAUAUUAUUCUUUCUCGAUAUCAUAUUAAUCUUU | 135
Ib_S2_P3E.1_K3.1_C3.1_H3.1_A3.1_[A6G]_F3.1_[A8C]_T3.1 (ssRNA) RNA: UUUGAUUAAUAUGAUAUCGUUCUUUCUUGUAUGUCUUCUUUCUCGAUAUCAUAUUAAUCUUU | 90.1
Ie_S2_P4E.1_K4.1_C4.1_H4.1_[+3TCTCT]_A4.1_F4.1_T4.1 (ssRNA) RNA: UUUGAUUAAUAUGAUAUCGUUCUUUCUUGUUCUCUAUAUUAUUCUUUCUCGAUAUCAUAUUAAUCUUU | 12
Ie_S2_P4E.1_K4.1_C4.1_H4.1_[+3TTCCT]_A4.1_F4.1_T4.1 (ssRNA) RNA: UUUGAUUAAUAUGAUAUCGUUCUUUCUUGUUUCCUAUAUUAUUCUUUCUCGAUAUCAUAUUAAUCUUU | 17.5
Ie_S2_P4E.1_K4.1_C4.1_H4.1_[+3CCCTT]_A4.1_F4.1_T4.1 (ssRNA) RNA: UUUGAUUAAUAUGAUAUCGUUCUUUCUUGUCCCUUAUAUUAUUCUUUCUCGAUAUCAUAUUAAUCUUU | 35.8
If_S2_P5E.1_K5.1_C5.1_H5.1_A5.1_F5.1_T5.1 (ssRNA) RNA: UUUGAUUAAUAUGAUAUCGUUCUUUCUUGUAUUAUUAUUCUUUCUCGAUAUCAUAUUAAUCUUU | 1.92
Ie_S2_P4E.1_K4.1_C4.1_H4.1_A4.1_[+5CT]_F4.1_T4.1 (ssRNA) RNA: UUUGAUUAAUAUGAUAUCGUUCUUUCUUGUAUCUAUUAUUCUUUCUCGAUAUCAUAUUAAUCUUU | 5.74
Ie_S2_P5E.1_K5.1_C5.1_H5.1_[+4T]_A5.1_F5.1_T5.1 (ssRNA) RNA: UUUGAUUAAUAUGAUAUCGUUCUUUCUUGUAUUUAUUAUUCUUUCUCGAUAUCAUAUUAAUCUUU | 11.6
Ie_S2_P4E.1_K4.1_C4.1_H4.1_[+4CCT]_A4.1_F4.1_T4.1 (ssRNA) RNA: UUUGAUUAAUAUGAUAUCGUUCUUUCUUGUACCUUAUUAUUCUUUCUCGAUAUCAUAUUAAUCUUU | 1.13
Ie_S2_P4E.1_K4.1_C4.1_H4.1_[+4TCC]_A4.1_F4.1_T4.1 (ssRNA) RNA: UUUGAUUAAUAUGAUAUCGUUCUUUCUUGUAUCCUAUUAUUCUUUCUCGAUAUCAUAUUAAUCUUU | 2.35
Ie_S2_P5E.1_K5.1_C5.1_H5.1_A5.1_[+6CT]_F5.1_T5.1 (ssRNA) RNA: UUUGAUUAAUAUGAUAUCGUUCUUUCUUGUAUUCUAUUAUUCUUUCUCGAUAUCAUAUUAAUCUUU | 1.41
Ie_S2_P5E.1_K5.1_C5.1_H5.1_[+4TC]_A5.1_F5.1_T5.1 (ssRNA) RNA: UUUGAUUAAUAUGAUAUCGUUCUUUCUUGUAUCUUAUUAUUCUUUCUCGAUAUCAUAUUAAUCUUU | 1.55
Ic_S2_P3E.1_K3.1_C3.1_H3.1_A3.1_[A6C]_F3.1_[A8C]_T3.1 (ssRNA) RNA: UUUGAUUAAUAUGAUAUCGUUCUUUCUUGUAUCUCUUCUUUCUCGAUAUCAUAUUAAUCUUU | 15.4
Ie_S2_P5E.1_K5.1_C5.1_H5.1_[+4CT]_A5.1_F5.1_T5.1 (ssRNA) RNA: UUUGAUUAAUAUGAUAUCGUUCUUUCUUGUACUUUAUUAUUCUUUCUCGAUAUCAUAUUAAUCUUU | 0.922
Ie_S2_P5E.1_K5.1_C5.1_H5.1_[+4TT]_A5.1_F5.1_T5.1 (ssRNA) RNA: UUUGAUUAAUAUGAUAUCGUUCUUUCUUGUAUUUUAUUAUUCUUUCUCGAUAUCAUAUUAAUCUUU | 1.57
Ie_S2_P4E.1_K4.1_C4.1_H4.1_A4.1_[+5CTCT]_F4.1_T4.1 (ssRNA) RNA: UUUGAUUAAUAUGAUAUCGUUCUUUCUUGUAUCUCUAUUAUUCUUUCUCGAUAUCAUAUUAAUCUUU | 4.51
Ie_S2_P5E.1_K5.1_C5.1_H5.1_A5.1_[+5TCC]_F5.1_T5.1 (ssRNA) RNA: UUUGAUUAAUAUGAUAUCGUUCUUUCUUGUAUUCCUAUUAUUCUUUCUCGAUAUCAUAUUAAUCUUU | 4.58
Ie_S2_P4E.1_K4.1_C4.1_H4.1_[+4CCCT]_A4.1_F4.1_T4.1 (ssRNA) RNA: UUUGAUUAAUAUGAUAUCGUUCUUUCUUGUACCCUUAUUAUUCUUUCUCGAUAUCAUAUUAAUCUUU | 1.96
